# B1: Pistol ribozyme (parent)
# chain: GGGUCGUUGUUCCAUAAUCGCGUGGAUAUGGCACGCAAGUUUCUACCGGGCACCGUAAAUGUCCGACUGGAGCCGUUCGGGCGGCUAUAAACAGACCUCAGGCCCGAAGCGUGGCGGCACCUGCCGCCGGUGGUAAAAAAGAUCGGAAGAGCACACGUCU
# Variants of: B1
# Assay: aptazyme ON/OFF ratio, guanine; higher = stronger switching; co-transcriptional cleavage with and without guanine
row,Variant,aptazyme ON/OFF ratio
1,U8A G9C U10A U11G C12A C13A,1.14
2,U7C C12A C13A,1.16
3,U8A U10C C12A,1.31
4,U7C U8C U10A U11C C12G,1.26
5,U7G U8C G9U U10C C13U,1.47
6,U7G U8C G9C U11C C12U C13G,1.1
7,U7G U8C U10C U11A,2.21
8,U8G G9A U10C U11C C12U C13G,1.04
9,U7A U8G G9A U10C U11A C12A C13A,1.12
10,U7A U8A G9A U10A U11C C12U C13A,1.17
11,U8C G9U U11C C13U,1.01
12,U8A G9A U11G C12A,1.08
13,U7A U8A G9A U10G U11G C12A C13U,1.29
14,U7C U8A U10A U11A C12G C13G,1.31
15,U7C U8G G9U U10G C13U,1.2
16,U7A U8G U11A C12G C13U,1.24
17,U7A U8C G9U U10C U11A C12G C13G,1.22
18,U8C G9U U11G C12U,1.59
19,U7C U8C G9A U10A U11G C12U C13G,1.21
20,U7G U8A G9U C12U C13U,1.07
21,U7C U8C G9U U10G U11A C12U C13G,1.12

row,Variant,aptazyme ON/OFF ratio
1,U7A U8C G9U U10A U11A C12G C13U,1.34
2,U8A U10G U11G C12A,1.11
3,U7A U8A G9A U11G C12A C13U,1.09
4,U7C U8G G9A U10C U11C C12U,1.01
5,U8G G9U U10A U11G C13A,1.09
6,U7C U8A U10A U11A C13U,1.17
7,U8A G9C U11A C13U,1.16
8,U7C G9C U10C C12A C13G,1.06
9,U7C G9C U10A U11C C12U,1.04
10,U7G U8C G9U U11C C13A,1.38
11,U7C U8G G9C U10C U11A C12G,1.07
12,U7C U8C G9U U10C U11A C12G C13G,1.15
13,U7C U10C C13U,2.47
14,U7A U8A U10A U11A,1.18
15,U7C U8G U10G U11A C13U,1.28
16,U7G U8A G9C U10A U11G C12A C13A,1.05
17,U7G U8G G9U U10A U11C C13G,1.09
18,U7A G9C U10A U11C C12U C13A,1.1
19,U7G U8A G9A U10C U11C C12G C13G,1.03
20,U7C U8C U10C U11G C13G,1.24
21,U8A G9C U10C U11A C12G,1.03

row,Variant,aptazyme ON/OFF ratio
1,U8C G9U U10A U11G C12U C13G,1.14
2,U7A G9U U10G C12A C13U,1.3
3,U7G U8A U10C U11A C12G C13U,1.38
4,U7A U8C G9A U10C U11C C12G C13U,1.06
5,U7C G9C U10A U11A C12A C13A,1.09
6,U8C G9A U10G U11G C13G,1.13
7,U7C U8A G9C U10C U11G C12G C13A,1.11
8,U7A U8A G9A U10G U11G C13A,1.19
9,U7A U8A G9C U10A U11A C12G,1.27
10,U7C U8A U11C C12U C13G,1.27
11,U7G G9C U11G,1.48
12,U7A U8G G9U U10C U11A C12A C13U,1.47
13,U7A U8G U10A U11G C12A C13G,1.21
14,U8A G9A U10A U11G C13A,1.12
15,U7C U8C G9A U10C U11C C12A C13U,1.31
16,U7C U8G G9A U11C C13A,1.04
17,U7G U8G G9C U10G U11A C13G,1.05
18,U10G U11C C12A,1.51
19,U7C G9C U10C U11A C12U C13A,1.03
20,U8A G9U U10A U11C C12U C13A,1.25
21,U7A U8G G9A U10C U11A C12G C13G,1.13

row,Variant,aptazyme ON/OFF ratio
1,U7A U8G G9C U10C U11G C13U,1.23
2,U8A G9C U10A C12U C13U,0.997
3,U7G G9C U10C U11G C12G,1.1
4,U8G U10C U11G C12U C13A,1.14
5,U7A G9C C12A C13U,1.1
6,U7C U8A U10C U11G C13U,1.16
7,U7C U8G G9A U10G U11C C12G C13U,1.19
8,U7A G9U U10C U11C,1.07
9,U7G U8A G9U U10A U11G C12U,1.16
10,U8A G9U U10C C12U,1.08
11,U7A G9C U10G U11A,1.03
12,U8A U10A U11C C12U,1.01
13,U7A U8G G9A U11G C12G C13G,1.08
14,U7G U8C G9C U10A U11G C12U,1.26
15,U7A U8C U11A C12G C13G,1.1
16,U7C G9C U10A U11A C12G C13A,1.08
17,U7A U8A G9C U10G U11G C12A C13U,1.41
18,U7A U10G U11A C12A,1.36
19,U7C U8A G9A U10C U11C,1.02
20,U7A G9A U10A U11G C12G C13U,1.25
